Assay results reported in US20170189513A1.
Where no end group is shown, it is not given here.

Biological target: HLA-A*24 (human)
Test: UV-ligand exchange, b2m ELISA

Binder | peptide exchange yield [%]
AYLHSHALI [… (SEQ ID No 274)] | > 75
KYTSWYVAL [… (SEQ ID No 228)] | > 75
IYQLDTASI [… (SEQ ID No 182)] | 50 to 75
YYVYIMNHL [… (SEQ ID No 225)] | 50 to 75
IFLDYEAGTLSF [… (SEQ ID No 227)] | > 75
YFDKVVTL [YFDKVVTL (SEQ ID No 215)] | 20 to 49
TYLRDQHFL [… (SEQ ID No 187)] | > 75
IFIEVFSHF [… (SEQ ID No 178)] | 50 to 75
SYALLTYMI [… (SEQ ID No 192)] | > 75
RYLNKAFHI [… (SEQ ID No 284)] | 50 to 75
VYVSDIQEL [… (SEQ ID No 288)] | 50 to 75
TYIESASEL [… (SEQ ID No 279)] | 50 to 75
QYLENLEKL [… (SEQ ID No 224)] | 50 to 75
QYSSVFKSL [… (SEQ ID No 216)] | > 75
RYISDQLFTNF [… (SEQ ID No 278)] | > 75
KYPVEWAKF [… (SEQ ID No 289)] | > 75
EFGSLHLEFL [… (SEQ ID No 194)] | < 20
TYGDAGLTYTF [… (SEQ ID No 283)] | 50 to 75
LYLKLWNLI [… (SEQ ID No 214)] | 50 to 75
TYTTVPRVAF [… (SEQ ID No 172)] | > 75
LYLDIINLF [… (SEQ ID No 181)] | > 75
IYKVGAPTI [… (SEQ ID No 185)] | 50 to 75
VHIPEVYLI [… (SEQ ID No 205)] | 50 to 75
QYLQDAYSF [… (SEQ ID No 272)] | > 75
RFHPTPLLL [… (SEQ ID No 193)] | > 75
FFPPTRQMGLLF [… (SEQ ID No 217)] | > 75
KYIPYKYVI [… (SEQ ID No 223)] | 50 to 75

Binder | peptide exchange yield [%]
VYRDETGELF [… (SEQ ID No 226)] | 50 to 75
IFPQFLYQF [… (SEQ ID No 186)] | > 75
RYPDNLKHLYL [… (SEQ ID No 280)] | > 75
RYFKGLVF [RYFKGLVF (SEQ ID No 188)] | 50 to 75
EYPLVINTL [… (SEQ ID No 219)] | 50 to 75
KFVDSTFYL [… (SEQ ID No 282)] | > 75
VFQNFPLLF [… (SEQ ID No 184)] | > 75
RYPDNLKHL [… (SEQ ID No 286)] | 20 to 49
IYTMIYRNL [… (SEQ ID No 210)] | > 75
TYIKPISKL [… (SEQ ID No 273)] | 50 to 75
VFKASKITF [… (SEQ ID No 191)] | 50 to 75
VYGFQWRHF [… (SEQ ID No 276)] | > 75
EYINQGDLHEF [… (SEQ ID No 275)] | 50 to 75
YYLEVGKTLI [… (SEQ ID No 211)] | > 75
VFTSTARAF [… (SEQ ID No 183)] | 50 to 75
LYHDIFSRL [… (SEQ ID No 271)] | > 75
TYTQDFNKF [… (SEQ ID No 208)] | 50 to 75
EYQENFLSF [… (SEQ ID No 206)] | 50 to 75
VYPWLGALL [… (SEQ ID No 177)] | > 75
LYLDKATLI [… (SEQ ID No 198)] | 50 to 75
MYDSYWRQF [… (SEQ ID No 179)] | > 75
FYSRLLQKF [… (SEQ ID No 203)] | 50 to 75
RYSTGLAGNLL [… (SEQ ID No 221)] | 50 to 75
GFFIFNERF [… (SEQ ID No 190)] | 50 to 75
WYVNGVNYF [… (SEQ ID No 189)] | 20 to 49
KYMVYPQTF [… (SEQ ID No 267)] | > 75
IYDDSFIRPVTF [… (SEQ ID No 180)] | 50 to 75
